Data from publication PMC7455186.

Biological target: FLAG-Aac2 (S. cerevisiae) (UniProt P18239)
Assay: co-IP

Chain of UniProt P18239 (P18239 whole entry): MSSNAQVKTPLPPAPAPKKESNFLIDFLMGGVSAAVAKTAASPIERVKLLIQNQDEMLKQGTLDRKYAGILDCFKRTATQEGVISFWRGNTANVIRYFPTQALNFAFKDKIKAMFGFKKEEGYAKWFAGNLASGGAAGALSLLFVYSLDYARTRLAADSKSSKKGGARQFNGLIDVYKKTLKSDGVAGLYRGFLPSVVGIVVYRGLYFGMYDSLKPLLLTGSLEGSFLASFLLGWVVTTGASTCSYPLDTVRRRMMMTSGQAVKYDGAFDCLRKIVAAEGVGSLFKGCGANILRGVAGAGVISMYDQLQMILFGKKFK

percent decrease of the amount co-immunoprecipitated after BKA, against CATR | Substance
50% | respiratory complex IV (from UniProt P00401 1-534; P04037 26-155)
25% | respiratory complex III (from UniProt P07256 27-457; P07257 17-368; P08067 31-215; P00127 1-147)
